Here are results for one protein from patent US7381537B2, “Use of inhibitors of glutaminyl cyclases for treatment and prevention of disease” (Probiodrug AG, priority 2003, dated 2008).

Assay in all cases: purified protein, by the assay type;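 note: initial rates read in microplates at 30 °C, with enzyme activity quantified against an ammonia calibration curve recorded under the same assay conditions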
Substrate in series [1]: C[C@H](NC(=O)[C@H](C)NC(=O)[C@H](CO)NC(=O)[C@H](C)NC(=O)[C@H](C)NC(=O)[C@@H](N)CCC(N)=O)C(N)=O
To be noted: other: Table 6, influence of substrate length; pH 8.8.
Experimental: (§1) The initial velocities were evaluated and the enzymatic activity was determined from a standard curve of ammonia under assay conditions. All samples were measured at 30° C., using either the [sequence]luor Plus or the Sunrise (both from TECAN) reader for microplates. Kinetic data was evaluated using GraFit software.

Substrate in series [2]: C[C@H](NC(=O)[C@H](C)NC(=O)[C@H](C)NC(=O)[C@H](C)NC(=O)[C@@H](N)CCC(N)=O)C(N)=O
To be noted: other: Table 6, influence of substrate length; pH 8.8.
Experimental: as §1

Substrate in series [3]: CC(C)C[C@H](NC(=O)[C@H](CCCCN)NC(=O)[C@H](CCC(N)=O)NC(=O)[C@H](Cc1c[nH]cn1)NC(=O)[C@H](Cc1c[nH]cn1)NC(=O)[C@@H](NC(=O)[C@H](CCC(=O)O)NC(=O)[C@H](Cc1ccc(O)cc1)NC(=O)CNC(=O)[C@H](CO)NC(=O)[C@H](CC(=O)O)NC(=O)[C@H](Cc1c[nH]cn1)NC(=O)[C@H](CCCNC(=N)N)NC(=O)[C@H](Cc1ccccc1)NC(=O)[C@@H](N)CCC(N)=O)C(C)C)C(=O)N[C@H](C(=O)N[C@@H](Cc1ccccc1)C(=O)N[C@@H](Cc1ccccc1)C(=O)N[C@@H](C)C(N)=O)C(C)C
The following applies: other: recombinant human QC, buffer solution containing 1% DMSO; pH 8.8.
Experimental: as §1

Substrate in series [4]: N=C(N)NCCC[C@H](NC(=O)[C@H](Cc1ccccc1)NC(=O)[C@@H](N)CCC(N)=O)C(=O)N[C@@H](Cc1c[nH]cn1)C(=O)N[C@@H](CC(=O)O)C(=O)N[C@@H](CO)C(=O)NCC(=O)N[C@@H](Cc1ccc(O)cc1)C(=O)N[C@@H](CCC(=O)O)C(N)=O
To be noted: other: recombinant human QC, buffer solution containing 1% DMSO; pH 8.8.
Experimental: as §1

Substrate in series [5]: CC(C)C[C@H](NC(=O)[C@H](CCCNC(=N)N)NC(=O)[C@H](CCCCN)NC(=O)[C@H](Cc1ccccc1)NC(=O)C[C@@H](N)CCC(N)=O)C(=O)N[C@@H](C)C(N)=O
Experimental: as §1
The following applies: other: text b245; pH 8.8.

B1: human QC (Homo sapiens) (protein)
chain: VSPSASAWPEEKNYHQPAILNSSALRQIAEGTSISEMWQNDLQPLLIERYPGSPGSYAARQHIMQRIQRLQADWVLEIDTFLSQTPYGYRSFSNIISTLNPTAKRHLVLACHYDSKYFSHWNNRVFVGATDSAVPCAMMLELARALDKKLLSLKTVSDSKPDLSLQLIFFDGEEAFLHWSPQDSLYGSRHLAAKMASTPHPPGARGTSQLHGMDLLVLLDLIGAPNPTFPNFFPNSARWFERLQAIEHELHELGLLKDHSLEGRYFQNYSYGGVIQDDHIPFLRRGVPVLHLIPSPFPEVWHTMDDNEENLDESTIDNLNKILQVFVLEYLHL
Usually Km stands for the concentration of substrate that gives half-maximal velocity. The kcat is the maximal rate divided by the concentration of active sites. The kcat/Km is the turnover number divided by the Michaelis constant. For B1, the Km in series [1] amounted to 79 ± 6 µM; in series [2] it was 65 ± 3 µM; in series [3], 162 ± 12 µM; in series [4], 155 ± 4 µM; in series [5], 2500 ± 200 µM. The kcat in series [1] came to 55.3 ± 1.6 s⁻¹; in series [2], 60.5 ± 0.7 s⁻¹; in series [3], 62 ± 3 s⁻¹; in series [4], 41.4 ± 0.4 s⁻¹; in series [5] it was 3.5 ± 0.1 s⁻¹. In addition, the kcat/Km in series [1] amounted to 700000 ± 33000 M⁻¹ s⁻¹; in series [2], 1.174e+06 ± 43000 M⁻¹ s⁻¹; in series [3], 383000 ± 10000 M⁻¹ s⁻¹; in series [4] it was 267000 ± 4000 M⁻¹ s⁻¹; in series [5], 1300 ± 100 M⁻¹ s⁻¹.
